Source: patent US20210388087A1 (Chugai, published 2021)

B1: H183/L072 VL P95M (antibody, name in Kabat numbering, V domains shown)
VH: QVQLVESGGGLVQPGRSLRLSCAASGFTFSNAWMHWVRQAPGKGLEWVAQIKDKGNAYAAYYAPSVKGRFTISRDDSKNSIYLQMNSLKTEDTAVYYCHYVHYASASTVLPAFGVDAWGQGTTVTVSS
VL: DIVMTQSPLSLPVTPGEPASISCQASQELVHMNRNTYLHWYQQKPGQAPRLLIYKVSNRFPGVPDRFSGSGSGTDFTLKISRVEAEDVGVYYCAQGTSVMFTFGQGTKLEIK
notes: Dual-Ig
B2: H183/L072 VL Q24D (antibody, name in Kabat numbering, V domains shown)
VH: QVQLVESGGGLVQPGRSLRLSCAASGFTFSNAWMHWVRQAPGKGLEWVAQIKDKGNAYAAYYAPSVKGRFTISRDDSKNSIYLQMNSLKTEDTAVYYCHYVHYASASTVLPAFGVDAWGQGTTVTVSS
VL: DIVMTQSPLSLPVTPGEPASISCDASQELVHMNRNTYLHWYQQKPGQAPRLLIYKVSNRFPGVPDRFSGSGSGTDFTLKISRVEAEDVGVYYCAQGTSVPFTFGQGTKLEIK
notes: Dual-Ig
B3: H183/L072 VL Q24M (antibody, name in Kabat numbering, V domains shown)
VH: QVQLVESGGGLVQPGRSLRLSCAASGFTFSNAWMHWVRQAPGKGLEWVAQIKDKGNAYAAYYAPSVKGRFTISRDDSKNSIYLQMNSLKTEDTAVYYCHYVHYASASTVLPAFGVDAWGQGTTVTVSS
VL: DIVMTQSPLSLPVTPGEPASISCMASQELVHMNRNTYLHWYQQKPGQAPRLLIYKVSNRFPGVPDRFSGSGSGTDFTLKISRVEAEDVGVYYCAQGTSVPFTFGQGTKLEIK
notes: Dual-Ig
B4: H183/L072 VL P95N (antibody, name in Kabat numbering, V domains shown)
VH: QVQLVESGGGLVQPGRSLRLSCAASGFTFSNAWMHWVRQAPGKGLEWVAQIKDKGNAYAAYYAPSVKGRFTISRDDSKNSIYLQMNSLKTEDTAVYYCHYVHYASASTVLPAFGVDAWGQGTTVTVSS
VL: DIVMTQSPLSLPVTPGEPASISCQASQELVHMNRNTYLHWYQQKPGQAPRLLIYKVSNRFPGVPDRFSGSGSGTDFTLKISRVEAEDVGVYYCAQGTSVNFTFGQGTKLEIK
notes: Dual-Ig
B5: H183/L072 VL P95W (antibody, name in Kabat numbering, V domains shown)
VH: QVQLVESGGGLVQPGRSLRLSCAASGFTFSNAWMHWVRQAPGKGLEWVAQIKDKGNAYAAYYAPSVKGRFTISRDDSKNSIYLQMNSLKTEDTAVYYCHYVHYASASTVLPAFGVDAWGQGTTVTVSS
VL: DIVMTQSPLSLPVTPGEPASISCQASQELVHMNRNTYLHWYQQKPGQAPRLLIYKVSNRFPGVPDRFSGSGSGTDFTLKISRVEAEDVGVYYCAQGTSVWFTFGQGTKLEIK
notes: Dual-Ig
B6: H183/L072 VL P95Q (antibody, name in Kabat numbering, V domains shown)
VH: QVQLVESGGGLVQPGRSLRLSCAASGFTFSNAWMHWVRQAPGKGLEWVAQIKDKGNAYAAYYAPSVKGRFTISRDDSKNSIYLQMNSLKTEDTAVYYCHYVHYASASTVLPAFGVDAWGQGTTVTVSS
VL: DIVMTQSPLSLPVTPGEPASISCQASQELVHMNRNTYLHWYQQKPGQAPRLLIYKVSNRFPGVPDRFSGSGSGTDFTLKISRVEAEDVGVYYCAQGTSVQFTFGQGTKLEIK
notes: Dual-Ig
B7: H183/L072 VL Q24H (antibody, name in Kabat numbering, V domains shown)
VH: QVQLVESGGGLVQPGRSLRLSCAASGFTFSNAWMHWVRQAPGKGLEWVAQIKDKGNAYAAYYAPSVKGRFTISRDDSKNSIYLQMNSLKTEDTAVYYCHYVHYASASTVLPAFGVDAWGQGTTVTVSS
VL: DIVMTQSPLSLPVTPGEPASISCHASQELVHMNRNTYLHWYQQKPGQAPRLLIYKVSNRFPGVPDRFSGSGSGTDFTLKISRVEAEDVGVYYCAQGTSVPFTFGQGTKLEIK
notes: Dual-Ig
B8: H183/L072 VL Q24N (antibody, name in Kabat numbering, V domains shown)
VH: QVQLVESGGGLVQPGRSLRLSCAASGFTFSNAWMHWVRQAPGKGLEWVAQIKDKGNAYAAYYAPSVKGRFTISRDDSKNSIYLQMNSLKTEDTAVYYCHYVHYASASTVLPAFGVDAWGQGTTVTVSS
VL: DIVMTQSPLSLPVTPGEPASISCNASQELVHMNRNTYLHWYQQKPGQAPRLLIYKVSNRFPGVPDRFSGSGSGTDFTLKISRVEAEDVGVYYCAQGTSVPFTFGQGTKLEIK
notes: Dual-Ig
B9: H183/L072 VL Q24F (antibody, name in Kabat numbering, V domains shown)
VH: QVQLVESGGGLVQPGRSLRLSCAASGFTFSNAWMHWVRQAPGKGLEWVAQIKDKGNAYAAYYAPSVKGRFTISRDDSKNSIYLQMNSLKTEDTAVYYCHYVHYASASTVLPAFGVDAWGQGTTVTVSS
VL: DIVMTQSPLSLPVTPGEPASISCFASQELVHMNRNTYLHWYQQKPGQAPRLLIYKVSNRFPGVPDRFSGSGSGTDFTLKISRVEAEDVGVYYCAQGTSVPFTFGQGTKLEIK
notes: Dual-Ig
B10: H183/L072 VL Q24I (antibody, name in Kabat numbering, V domains shown)
VH: QVQLVESGGGLVQPGRSLRLSCAASGFTFSNAWMHWVRQAPGKGLEWVAQIKDKGNAYAAYYAPSVKGRFTISRDDSKNSIYLQMNSLKTEDTAVYYCHYVHYASASTVLPAFGVDAWGQGTTVTVSS
VL: DIVMTQSPLSLPVTPGEPASISCIASQELVHMNRNTYLHWYQQKPGQAPRLLIYKVSNRFPGVPDRFSGSGSGTDFTLKISRVEAEDVGVYYCAQGTSVPFTFGQGTKLEIK
notes: Dual-Ig
B11: H183/L072 VL Q24G (antibody, name in Kabat numbering, V domains shown)
VH: QVQLVESGGGLVQPGRSLRLSCAASGFTFSNAWMHWVRQAPGKGLEWVAQIKDKGNAYAAYYAPSVKGRFTISRDDSKNSIYLQMNSLKTEDTAVYYCHYVHYASASTVLPAFGVDAWGQGTTVTVSS
VL: DIVMTQSPLSLPVTPGEPASISCGASQELVHMNRNTYLHWYQQKPGQAPRLLIYKVSNRFPGVPDRFSGSGSGTDFTLKISRVEAEDVGVYYCAQGTSVPFTFGQGTKLEIK
notes: Dual-Ig
B12: H183/L072 VL Q24K (antibody, name in Kabat numbering, V domains shown)
VH: QVQLVESGGGLVQPGRSLRLSCAASGFTFSNAWMHWVRQAPGKGLEWVAQIKDKGNAYAAYYAPSVKGRFTISRDDSKNSIYLQMNSLKTEDTAVYYCHYVHYASASTVLPAFGVDAWGQGTTVTVSS
VL: DIVMTQSPLSLPVTPGEPASISCKASQELVHMNRNTYLHWYQQKPGQAPRLLIYKVSNRFPGVPDRFSGSGSGTDFTLKISRVEAEDVGVYYCAQGTSVPFTFGQGTKLEIK
notes: Dual-Ig
B13: H183/L072 VL P95V (antibody, name in Kabat numbering, V domains shown)
VH: QVQLVESGGGLVQPGRSLRLSCAASGFTFSNAWMHWVRQAPGKGLEWVAQIKDKGNAYAAYYAPSVKGRFTISRDDSKNSIYLQMNSLKTEDTAVYYCHYVHYASASTVLPAFGVDAWGQGTTVTVSS
VL: DIVMTQSPLSLPVTPGEPASISCQASQELVHMNRNTYLHWYQQKPGQAPRLLIYKVSNRFPGVPDRFSGSGSGTDFTLKISRVEAEDVGVYYCAQGTSVVFTFGQGTKLEIK
notes: Dual-Ig
B14: H183/L072 VL Q24A (antibody, name in Kabat numbering, V domains shown)
VH: QVQLVESGGGLVQPGRSLRLSCAASGFTFSNAWMHWVRQAPGKGLEWVAQIKDKGNAYAAYYAPSVKGRFTISRDDSKNSIYLQMNSLKTEDTAVYYCHYVHYASASTVLPAFGVDAWGQGTTVTVSS
VL: DIVMTQSPLSLPVTPGEPASISCAASQELVHMNRNTYLHWYQQKPGQAPRLLIYKVSNRFPGVPDRFSGSGSGTDFTLKISRVEAEDVGVYYCAQGTSVPFTFGQGTKLEIK
notes: Dual-Ig
B15: H183/L072 VL Q24R (antibody, name in Kabat numbering, V domains shown)
VH: QVQLVESGGGLVQPGRSLRLSCAASGFTFSNAWMHWVRQAPGKGLEWVAQIKDKGNAYAAYYAPSVKGRFTISRDDSKNSIYLQMNSLKTEDTAVYYCHYVHYASASTVLPAFGVDAWGQGTTVTVSS
VL: DIVMTQSPLSLPVTPGEPASISCRASQELVHMNRNTYLHWYQQKPGQAPRLLIYKVSNRFPGVPDRFSGSGSGTDFTLKISRVEAEDVGVYYCAQGTSVPFTFGQGTKLEIK
notes: Dual-Ig
B16: H183/L072 VL Q24P (antibody, name in Kabat numbering, V domains shown)
VH: QVQLVESGGGLVQPGRSLRLSCAASGFTFSNAWMHWVRQAPGKGLEWVAQIKDKGNAYAAYYAPSVKGRFTISRDDSKNSIYLQMNSLKTEDTAVYYCHYVHYASASTVLPAFGVDAWGQGTTVTVSS
VL: DIVMTQSPLSLPVTPGEPASISCPASQELVHMNRNTYLHWYQQKPGQAPRLLIYKVSNRFPGVPDRFSGSGSGTDFTLKISRVEAEDVGVYYCAQGTSVPFTFGQGTKLEIK
notes: Dual-Ig
B17: H183/L072 VL P95T (antibody, name in Kabat numbering, V domains shown)
VH: QVQLVESGGGLVQPGRSLRLSCAASGFTFSNAWMHWVRQAPGKGLEWVAQIKDKGNAYAAYYAPSVKGRFTISRDDSKNSIYLQMNSLKTEDTAVYYCHYVHYASASTVLPAFGVDAWGQGTTVTVSS
VL: DIVMTQSPLSLPVTPGEPASISCQASQELVHMNRNTYLHWYQQKPGQAPRLLIYKVSNRFPGVPDRFSGSGSGTDFTLKISRVEAEDVGVYYCAQGTSVTFTFGQGTKLEIK
notes: Dual-Ig
B18: H183/L072 VL P95S (antibody, name in Kabat numbering, V domains shown)
VH: QVQLVESGGGLVQPGRSLRLSCAASGFTFSNAWMHWVRQAPGKGLEWVAQIKDKGNAYAAYYAPSVKGRFTISRDDSKNSIYLQMNSLKTEDTAVYYCHYVHYASASTVLPAFGVDAWGQGTTVTVSS
VL: DIVMTQSPLSLPVTPGEPASISCQASQELVHMNRNTYLHWYQQKPGQAPRLLIYKVSNRFPGVPDRFSGSGSGTDFTLKISRVEAEDVGVYYCAQGTSVSFTFGQGTKLEIK
notes: Dual-Ig
B19: H183/L072 VL P95R (antibody, name in Kabat numbering, V domains shown)
VH: QVQLVESGGGLVQPGRSLRLSCAASGFTFSNAWMHWVRQAPGKGLEWVAQIKDKGNAYAAYYAPSVKGRFTISRDDSKNSIYLQMNSLKTEDTAVYYCHYVHYASASTVLPAFGVDAWGQGTTVTVSS
VL: DIVMTQSPLSLPVTPGEPASISCQASQELVHMNRNTYLHWYQQKPGQAPRLLIYKVSNRFPGVPDRFSGSGSGTDFTLKISRVEAEDVGVYYCAQGTSVRFTFGQGTKLEIK
notes: Dual-Ig
B20: H183/L072 VL Q24L (antibody, name in Kabat numbering, V domains shown)
VH: QVQLVESGGGLVQPGRSLRLSCAASGFTFSNAWMHWVRQAPGKGLEWVAQIKDKGNAYAAYYAPSVKGRFTISRDDSKNSIYLQMNSLKTEDTAVYYCHYVHYASASTVLPAFGVDAWGQGTTVTVSS
VL: DIVMTQSPLSLPVTPGEPASISCLASQELVHMNRNTYLHWYQQKPGQAPRLLIYKVSNRFPGVPDRFSGSGSGTDFTLKISRVEAEDVGVYYCAQGTSVPFTFGQGTKLEIK
notes: Dual-Ig

These binders were tested against T1, Human CD137 ECD (human) (assay: Biacore SPR, vs parent H183/L072).
T1 construct: entry includes C-terminal His-tag and biotin acceptor peptide; also called human CD137 extracellular domain; 4-1BB
T1 sequence (chain, as listed by the source limits assumed): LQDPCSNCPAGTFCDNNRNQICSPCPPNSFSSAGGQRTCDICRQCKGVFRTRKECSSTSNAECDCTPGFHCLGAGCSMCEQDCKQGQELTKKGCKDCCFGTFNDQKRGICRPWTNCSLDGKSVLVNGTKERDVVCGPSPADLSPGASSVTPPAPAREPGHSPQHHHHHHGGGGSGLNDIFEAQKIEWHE
In the case of B1, the “fold change of affinity” value is reported as 0 fold. In the case of B2, the “fold change of affinity” value is reported as 0.9 fold. B3 was tested, and the “fold change of affinity” value was 1 fold. For B4, the “fold change of affinity” value was 0 fold. B5 was tested, and the “fold change of affinity” value was 0 fold. For B6, the “fold change of affinity” value was 0 fold. In the case of B7, the “fold change of affinity” value is reported as 1 fold. For B8, the “fold change of affinity” value was 0.9 fold. B9 was tested, and the “fold change of affinity” value was 0.9 fold. In the case of B10, the “fold change of affinity” value is reported as 0.9 fold. For B11, the “fold change of affinity” value was 1 fold. In the case of B12, the “fold change of affinity” value is reported as 1 fold. With B13 the “fold change of affinity” value was 0 fold. In the case of B14, the “fold change of affinity” value is reported as 1 fold. For B15, the “fold change of affinity” value was 0.9 fold. With B16 the “fold change of affinity” value was 0 fold. With B17 the “fold change of affinity” value was 0 fold. B18 was tested, and the “fold change of affinity” value was 0 fold. For B19, the “fold change of affinity” value was 0 fold. For B20, the “fold change of affinity” value was 0.9 fold.
